Test results reported in patent CN104610448A (WOMEN S HOSPITAL SCHOOL OF MEDICINE ZHEJIANG UNIVERSITY, dated 2015).

How the values were obtained:
[1] = molecular target: T1, HPV16E6 (pEGFP-C1-HPV16E6质粒转染293T细胞所提蛋白) (HPV16, UniProt P03126 1-158); test: western blot, 293T lysate, recombinant antibody
T1 construct: not shown: EGFP tag encoded by the pEGFP-C1 vector (N-terminal to the insert)

[2] = molecular target: T2, HPV58E6 (pEGFP-C1-HPV58E6质粒转染293T细胞所提蛋白) (HPV58, UniProt P26555 1-149); test: western blot, 293T lysate, recombinant antibody 1:100
T2 construct: Expressed from pEGFP-C1 in 293T cells, so an EGFP fusion (band at 37-55 KD); assayed as denatured cell lysate in western blot; not shown: EGFP tag encoded by the pEGFP-C1 vector (N-terminal to the insert)
T2 sequence (looked up): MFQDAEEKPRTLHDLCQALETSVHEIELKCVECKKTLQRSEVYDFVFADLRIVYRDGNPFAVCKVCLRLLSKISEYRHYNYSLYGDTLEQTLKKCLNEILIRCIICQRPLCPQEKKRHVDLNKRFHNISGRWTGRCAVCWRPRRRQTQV

T1 sequence (P03126 whole entry): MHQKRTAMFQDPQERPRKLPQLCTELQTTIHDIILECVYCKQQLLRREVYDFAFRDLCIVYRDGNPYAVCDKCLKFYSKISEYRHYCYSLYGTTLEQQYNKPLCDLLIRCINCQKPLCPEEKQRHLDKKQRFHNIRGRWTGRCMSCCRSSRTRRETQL

B1: HPV58E6特异性兔单克隆抗体 (ZJM1b-9 H2/L1 重组抗体) (antibody, V domains shown)
VH: QSVEESGGRLVTPGTPLTLTCTVSGFSLSSKTISWVRQAPGKGLEWIGAIDSNGMKAYARWAKGRFTISKSSTTVYLKITSPTTEDTATYFCVKPNNLWGPGTLVTVSS
VL: AQVLTQTPSPVSAAVGGTVTINCQSSQSVYNNNALSWYQQKPGQPPKLLIYSASKVATGVPSRFSGSGSGAQFTLTISDLECDDAATYYCQGEFSCSSADCFAFGGGTEVVVKG
notes: Recombinant rabbit monoclonal antibody made in HEK-293-6E cells from pTT5 plasmids; also called ZJM1b-9中的H2/L1; ZJM-1-9H2/L1
B1: no binding (tested: 1:100稀释) [1]; binds [2].
